Experimental findings from the nanobody polyreactivity screen of Harvey et al. (2022) are described below.

This data set is described as follows: yeast display, Sf9 membrane polyspecificity reagent, FACS + sequencing; frameworks hold sequencing errors. Summed up: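 Galactose-induced (36–48 hours) yeast carrying a synthetic nanobody display library were exposed to 10% biotinylated, detergent-solubilized Sf9 membrane reagent at 4 °C for 1 hour. FACS followed streptavidin microbead enrichment, using low and high (top ~1%) gates for expression (anti-HA) and reagent binding (streptavidin). Colony PCR, MiSeq 2 × 250 sequencing and CDR-length filtering followed. Labels for polyreactivity reflect the gate of origin.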
Turning to “QVQLVESGGGLVQAGGSLRLSCAASGITFGWYAMGWYRPAPGKERELVAAISWSGGTTYYADSVKGRFTISRDNAKNTVYLQMNSLKPEDTAVYYCAATWYYPTVYAGNYWGQGTQVTVSS”, the “polyreactivity (PSR sort gate)” value is on record as “high polyreactivity”.

Take “QVQLVESGGGLVQAGGSLRLSCAASGITFGYYAMGWSRQAPGKERELVAAINWRGGNTYYADSVKGRFTISRDNAKNTVYLQMNSLKPEDTAVYYCNALYKRYTDYDYWGQGSQVTVSS”: the “polyreactivity (PSR sort gate)” value is given as “high polyreactivity”.

“QVQLVESGGGLVQAGGSLRLSCAASGITFGYYAMGWYRQAPGKERELVAAITWSGSSTYYADSVKGRFTISRDNAKNTVYLQMNSLKPEDTAVYYCAAEYSSHYAVWRGHSGYWGQGTQVTVSS”: the “polyreactivity (PSR sort gate)” value was “high polyreactivity”.

“QVQLVESGGGLVQAGGSLRLSCAASGITFHRYDMGWYRQAPGKERELVADITWSGGSTYYADSVKGRFTISRDNAKNTVYLQMNSLKPEDTSVYYCAADASTYTYTPYDYWGQGTQVTVSS”: the “polyreactivity (PSR sort gate)” value is reported as “low polyreactivity”.

Consider “QVQLVESGGGLVQAGGSLRLSCAASGITFHYKAMGWYIQAPGKERELVATIRRGGITKYADSVKGRFTISRDNAKNTVYLQMNSLKPEDTAVYYCAAGYYSHGAWFDHWGEGTQVTVSS”, for which the “polyreactivity (PSR sort gate)” value is “low polyreactivity”.

Turning to “QVQLVESGGGLVQAGGSLRLSCAASGITFIGYAMGWYRQAPGKERELVAAITTNGGGTYYADSVKWRFTISRDNAKKTVYLQMNSLKPEDTAVYYCNAVKQRSSIFDYWGQGSQVTVSS”, the “polyreactivity (PSR sort gate)” value was “low polyreactivity”.

“QVQLVESGGGLVQAGGSLRLSCAASGITFILNPMGWNRQAPGKEREFVAAISTSGGNTYYADSVKGRFTISRDYAKYTVYLEMNSLKPEDTAVYYCNADWGVVYISYSPEYDYWGHGTQVTVSS”: the “polyreactivity (PSR sort gate)” value was “low polyreactivity”.

For the sequence “QVQLVESGGGLVQAGGSLRLSCAASGITFINYDMGWYRQAPGKERELVAAISQIGTSTYYADSVKGRCTISRDNAKNTVYLQMNSLKPEDTAVYYCNARYISTGFRYNYWGQGTQVTVSS”, the “polyreactivity (PSR sort gate)” value is given as “high polyreactivity”.

As to “QVQLVESGGGLVQAGGSLRLSCAASGITFISYAMGWYRQAPGKERELVAGITSDDSTSYADSVKGRFTISRDNAKNTVYLQMNSVKPEDTAVYYCAARSYTLRTSTGRLYRYYYWGQGTQVTVSS”, the “polyreactivity (PSR sort gate)” value is reported as “high polyreactivity”.

As for “QVQLVESGGGLVQAGGSLRLSCAASGITFIVNTMGWYRQAPGKEREFVATISANSDGTYYADSVKGRFTISRDNAKNTVYLQMNSLKPEDTAVYYWGQGTQVTVSS”, the “polyreactivity (PSR sort gate)” value is “low polyreactivity”.

Regarding “QVQLVESGGGLVQAGGSLRLSCAASGITFIYYAMGWYRQAPGKEREFVAAITFRDGDTYYADSVKGRFTISRDNAKNTVYLQMNSLKPEDTAVYYCADTYWVYYFYPGYDYWGQGTQVTVSS”, the “polyreactivity (PSR sort gate)” value was “low polyreactivity”.

For “QVQLVESGGGLVQAGGSLRLSCAASGITFIYYTMGWYRQEPGKERELVAAISSRGSSTYYADSVKGRFTISRDNAKNTVYLQMNSLKPEDTAVYYCAAVQYRYGGMDYWGQGTQVTVSS”, the “polyreactivity (PSR sort gate)” value is given as “high polyreactivity”.

For “QVQLVESGGGLVQAGGSLRLSCAASGITFKAYAMGWYRQAPGKDRELVAAINTSGARTYYADSVKGRFTISRDNAKNTVYLQMNSLKPEDTAVYYCNARLHQQEGDYWGQGTQVTVSS”, the “polyreactivity (PSR sort gate)” value is on record as “low polyreactivity”.

For “QVQLVESGGGLVQAGGSLRLSCAASGITFKAYVMGWYRQAPGKERELVAAITRSGGRTYYADSVKGRFTISRDNAKNTVFLQMNSLKPEDTAVYYCAADGPHHGDGYWGQGTQVTVSS”, the “polyreactivity (PSR sort gate)” value is reported as “high polyreactivity”.

Regarding “QVQLVESGGGLVQAGGSLRLSCAASGITFKFYAMGWYRQAPGKERELVAAIDSRGGSTYYADSVKGRFTISRDNAKNTVYLQMNSLKPEDTSVYYCNKVGRRKLDYWGQGTQVTVSS”, the “polyreactivity (PSR sort gate)” value is recorded as “high polyreactivity”.

In the case of “QVQLVESGGGLVQAGGSLRLSCAASGITFKGNAMGWYRQAPGKERELVAVITWSGGSTYYADSVKGRFTISRDNAKNTVYLQMNSLKPEDTAVYYCAKPWIYGDSQYDYWGQGTQVTVSS”, the “polyreactivity (PSR sort gate)” value is “low polyreactivity”.
